In IntAct's records for PubMed 10887173:

B1: 14-3-3 protein zeta/delta (Homo sapiens), P63104 (parent)
chain: MDKNELVQKAKLAEQAERYDDMAACMKSVTEQGAELSNEERNLLSVAYKNVVGARRSSWRVVSSIEQKTEGAEKKQQMAREYREKIETELRDICNDVLSLLEKFLIPNASQAESKVFYLKMKGDYYRYLAEVAAGDDKKGIVDQSQQAYQEAFEISKKEMQPTHPIRLGLALNFSVFYYEILNSPEKACSLAKTAFDEAIAELDTLSEESYKDSTLIMQLLRDNLTLWTSDTQGDEAEAGEGGEN

Variants of: B1
Settings: with vime_chlae VIM

| effect of a mutation on the interaction | Variant |
| --- | --- |
| decreasing interaction | E5K;L12Q;A13Q;E14R;Y82Q;K85N;E87Q |
